Experimental data: patent US20170216434A1 (WAYNE STATE UNIVERSITY, published 2017)

What was measured:
[1] = target: Very late antigen-4 (VLA-4), alpha4beta1 integrin, on the surface of human reticulocytes and mononuclear leukocytes (human) (UniProt P13612); test: flow cytometry saturation binding on isolated RBCs from 5 SCD donors
[2] = target: Very late antigen-4 (VLA-4), alpha4beta1 integrin, on the surface of human reticulocytes and mononuclear leukocytes (human) (UniProt P13612); test: flow cytometry saturation binding on isolated RBCs, individual SCD donors
[3] = target: Very late antigen-4 (VLA-4), alpha4beta1 integrin, on the surface of human reticulocytes and mononuclear leukocytes (human) (UniProt P13612); test: flow cytometry saturation binding on isolated RBCs (reticulocytes) from 5 SCD donors, one-site binding analysis
[4] = target: Very late antigen-4 (VLA-4), alpha4beta1 integrin, on the surface of human reticulocytes and mononuclear leukocytes (human) (UniProt P13612); test: cell-based or functional assay
[5] = target: T1, Very late antigen-4 (VLA-4), alpha4beta1 integrin, on the surface of human reticulocytes and mononuclear … (human, UniProt P13612 34-1032; P05556 21-798); test: flow cytometry saturation binding on isolated RBCs (reticulocytes) from 5 SCD donors, one-site binding analysis
T1 construct: whole, on cells; Endogenous integrin on primary human blood cells; also called α4β1 integrin; a4b1
Procedure: Flow cytometry was carried out using the BD FACS Canto II and data analysis was performed with the FACS Diva software. Data for leukocytes was acquired by gating based on forward and side scatter properties and CD45 staining of mononuclear cells. Natalizumab and IgG4 staining of the CD45 positive mononuclear cells were then determined. For erythrocytes, cells were gated for CD235a positive staining and examined for thiazole orange stained reticulocytes. Reticulocyte staining for VLA-4 with either natalizumab or an anti CD29 antibody was then determined and compared to IgG4 or isotype matched control antibody.
Fab arm exchange with endogenous IgG4 in humans, resulting in the production of antibodies that are potentially bispecific (Labrijn AF et al. Nat Biotechnol. 27(8):767-71 2009). This phenomenon has been reported for natalizumab as well, leading to the formation of a monovalent form of the antibody, with only one Fab arm specific for the α-subunit of VLA-4 (Rispens T et al. Anal Biochem. 411(2):271-6 2011; Shapiro RI et al. J Pharm Biomed Anal. 55(1):168-75 2011). To assess the impact of half-antibody exchange of natalizumab on saturation and adhesion of sickle cells, a synthetic monovalent form of natalizumab was used where 1 Fab arm was specific for VLA-4 and the other for CD4. […]

[6] = target: T1, Very late antigen-4 (VLA-4), …; test: cell-based or functional assay

| fold change of EC50 against the divalent form [1] [fold] | fold change of EC50 against the divalent form [2] [fold] | EC50 [3] [mg/L] | IC50 for inhibition of adhesion of reticulocytes in isolated RBC to VCAM-1 [4] [mg/L] | fold change of adhesion-inhibition IC50 against the divalent form [4] [fold] | potency in blocking reticulocyte adhesion to VCAM-1 against divalent natalizumab (from IC50) [4] [fold] | EC50 [5] [mg/L] | IC50 for blocking adhesion of whole blood leukocytes to VCAM-1 under flow, adult SCD blood [6] [mg/L] | IC50 for blocking adhesion of whole blood reticulocytes to VCAM-1 under flow, adult SCD blood [6] [mg/L] | IC50 for inhibition of adhesion of reticulocytes in isolated RBC to VCAM-1 [6] [mg/L] | Binder |
| --- | --- | --- | --- | --- | --- | --- | --- | --- | --- | --- |
| 7 | 1.7 to 12 | 0.89 | 0.37 | 19 | 10 |  |  |  |  | synthetic monovalent form of natalizumab where 1 Fab arm was specific for VLA-4 and the other for CD4 (bispecific antibody, part only; not given: anti-CD4 arm and constant regions, V domains shown, not shown: another chain or arm of the molecule; a dimerising Fc or GST) VH: QVQLVQSGAEVKKPGASVKVSCKASGFNIKDTYIHWVRQAPGQRLEWMGRIDPANGYTKYDPKFQGRVTITADTSASTAYMELSSLRSEDTAVYYCAREGYYGNYGVYAMDYWGQGTLVTVSS VL: DIQMTQSPSSLSASVGDRVTITCKTSQDINKYMAWYQQTPGKAPRLLIHYTSALQPGIPSRFSGSGSGRDYTFTISSLQPEDIATYYCLQYDNLWTFGQGTKVEIK |
|  |  |  |  |  |  | 0.14 | 0.05 | 0.02 | 0.02 | Natalizumab (antibody, V domains shown, also called divalent natalizumab; divalent form) VH: QVQLVQSGAEVKKPGASVKVSCKASGFNIKDTYIHWVRQAPGQRLEWMGRIDPANGYTKYDPKFQGRVTITADTSASTAYMELSSLRSEDTAVYYCAREGYYGNYGVYAMDYWGQGTLVTVSS VL: DIQMTQSPSSLSASVGDRVTITCKTSQDINKYMAWYQQTPGKAPRLLIHYTSALQPGIPSRFSGSGSGRDYTFTISSLQPEDIATYYCLQYDNLWTFGQGTKVEIK |
